Data from patent US20020151463A1 (UT BATTELLE, published 2002).

B1: recombinant human agouti protein (ligand)
chain: HLPPEEKLRDDRSLRSNSSVNLLDVPSVSIVALNKKSKQIGRKAAEKKRSSKKEASMKKVVRPRTPLSAPCVATRNSCKPPAPACCDPCASCQCRFFRSACSCRVLSLNC
B2: recombinant murine agouti protein (ligand)
chain: HLALEETLGDDRSLRSNSSMNSLDFSSVSIVALNKKSKKISRKEAEKRKRSSKKKASMKKVARPPPPSPCVATRDSCKPPAPACCDPCASCQCRFFGSACTCRVLNPNC
notes: Full-length mouse agouti cDNA expressed by baculovirus in T. ni cells; also called mouse agouti; agouti polypeptide

Key:
human MSH receptor = human MSH receptor (human, UniProt Q01726 1-317); test: cell-based or functional assay
human MSH receptor, sequence (Q01726 whole entry): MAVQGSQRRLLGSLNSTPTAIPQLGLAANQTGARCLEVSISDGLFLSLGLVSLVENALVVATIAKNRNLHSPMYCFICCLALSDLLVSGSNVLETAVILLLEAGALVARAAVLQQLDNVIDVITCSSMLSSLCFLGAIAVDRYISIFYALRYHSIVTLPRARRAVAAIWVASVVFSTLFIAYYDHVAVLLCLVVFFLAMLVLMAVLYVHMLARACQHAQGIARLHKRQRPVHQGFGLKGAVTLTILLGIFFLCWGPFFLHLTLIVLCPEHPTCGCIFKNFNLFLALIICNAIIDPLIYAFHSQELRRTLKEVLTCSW

murine MSH receptor [1] = target: T1, murine MSH receptor (mouse, UniProt Q01727 1-315); test: cell-based or functional assay
T1 sequence (Q01727 whole entry): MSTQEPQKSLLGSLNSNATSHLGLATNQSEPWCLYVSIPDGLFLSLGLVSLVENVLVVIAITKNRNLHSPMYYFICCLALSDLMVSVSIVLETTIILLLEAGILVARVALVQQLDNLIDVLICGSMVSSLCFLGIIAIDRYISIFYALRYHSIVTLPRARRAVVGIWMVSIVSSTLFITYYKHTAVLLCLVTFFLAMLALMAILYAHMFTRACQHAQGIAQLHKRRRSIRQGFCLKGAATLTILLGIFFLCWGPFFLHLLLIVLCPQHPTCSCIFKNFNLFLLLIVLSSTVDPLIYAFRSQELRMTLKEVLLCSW

murine MSH receptor [2] = target: T1, murine MSH receptor; test: competition binding against 125I-ACTH1-39 on Cloudman M-3 melanoma cells, single-site model
Method: To investigate this further, the ability of the protein to compete with another melanocortin peptide for binding to the mouse MSH-R was examined. […] Competition binding studies were performed with ¹²⁵I-labelled ACTH₁₋₃₉ and the M-3 subclone of the Cloudman murine melanoma cell line.

| Binder | EC50 of the [Ca^2+]i dose response in the HEK-293 MC1R line (human MSH receptor) [pM] | apparent Ki (antagonism of α-MSH-stimulated adenylyl cyclase, four independent studies) (murine MSH receptor [1]) [pM] | IC50 (murine MSH receptor [2]) [ng/mL] | Ki (murine MSH receptor [2]) [pM] |
| --- | --- | --- | --- | --- |
| B1 | ~18000 |  |  |  |
| B2 |  | 320 | 1.2 | 660 |
